US20130022592A1, “Continuous subcutaneous insulin infusion methods with a hyaluronan-degrading enzyme” (priority 2011, published 2013)
Entries after “also recorded” stand apart in the source; their conditions may differ. Read-outs that look alike come from different tables or passages of the source.

Legend:
[1] = cited from earlier work
[2] = Blood glucose response to standardized evening meal (Example 3); assay type: in vivo, human; conditions: with vs without rHuPH20
Excerpt: (§1) The study was continued to include 15 subjects who completed the study protocol, and was further continued to include 17 subjects who completed the study protocol. The subjects were confined to an inpatient setting for three days of study.

[3] = in vivo
Experimental: as §1
Adverse events were assessed during the course or infusion treatment.

[4] = Routine diabetes management, continuous glucose monitoring (Example 4); assay type: in vivo, human; conditions: three patients; rHuPH20 preadministration
Experimental: The results are depicted below for the first three subjects that completed the study. In addition, continuous glucose monitoring of the three subjects to compare glucose control in routine outpatient diabetes care also was assessed. […] After the clamp experiment the infusion set was changed and the patients discharged. […] To maintain the double-blind study design, a trained professional not otherwise involved in the study administered either rHuPH20 or a sham injection while the patient looked away. After completion of the phase, patients returned to the CRU within 21 days to repeat these steps with the alternate treatment.

[5] = Adverse events (Example 4); assay type: in vivo, human; conditions: eleven evaluable subjects
Excerpt: 4. […] All were mild and resolved without sequaelae. The most common event was headache (n=4).

[6] = Glucodynamics in euglycemic clamps, rapid acting insulin analog CSII with rHuPH20 or sham injection (Example 4); assay type: in vivo, human
Excerpt: Patients with type 1 diabetes participated in a randomized, double-blind, 2-way crossover design clinical study comparing the administration of a single hyaluronidase injection at each infusion set change to sham injections in a CSII therapy. The study compared euglycemic clamp endpoints at the beginning and end of 3 days of continuous infusion and glycemic response to a series of four breakfast solid meal challenges. […] In addition, continuous glucose monitoring of the three subjects to compare glucose control in routine outpatient diabetes care also was assessed.
Subjects were released from the CRU the same day.
Subjects returned 3 days later for a second euglycemic clamp after 3 days of continuous infusion. After the clamp experiment the infusion set was changed and the patients discharged. […] Subjects returned to the CRU approximately every 3 days to receive a new infusion set and receive a patient specific standardized breakfast meal and insulin bolus.
(§2) The insulin action profile as a function of time, or glucodynamics, was measured by determining the rate of glucose infusion necessary to maintain euglycemia following the bolus insulin infusion.

[7] = Glucodynamics in euglycemic clamps, NovoLog CSII with or without rHuPH20 pretreatment (Example 3); assay type: in vivo, human; conditions: for faster onset of action with rHuPH20 pretreatment / shorter duration of action with rHuPH20 pretreatment: vs without rHuPH20
Experimental: The subjects were confined to an inpatient setting for three days of study.
Approximately 2 hours after insertion of the new insulin infusion catheter set, a euglycemic glucose clamp experiment was conducted (1′ clamp). […] Blood glucose was clamped at 90% of the fasting level to suppress endogenous insulin release during the study. A 0.15 U/kg bolus was administered through the insulin pump; and the usual individual basal rate was continued during clamps and PK results are thus baseline-subtracted.
During the euglycemic glucose clamp experiment, the subjects were followed for six (6) hours during which blood was drawn and free insulin levels and glucose infusion rates required to maintain euglycemia were determined.
In each experiment, the subjects were followed for six (6) hours during which blood was drawn and free insulin levels and glucose infusion rates required to maintain euglycemia were determined as described above.
as §2

insulin glargine
Duration ([1]; Table 2, Types of Insulins): 28 h
Onset ([1]; Table 2, Types of Insulins): 4 to 6 h
Peak ([1]; Table 2, Types of Insulins): 18 to 28 h

detemir: long-lasting insulin (an analog)
Duration ([1]; Table 2, Types of Insulins): 28 h
Onset ([1]; Table 2, Types of Insulins): 4 to 6 h
Peak ([1]; Table 2, Types of Insulins): 18 to 28 h

Regular Insulin
Duration ([1]; Table 2, Types of Insulins): 5 to 8 h
onset of action ([1]; administered subcutaneously alone): 30 min

insulin lispro
Duration ([1]; Table 2, Types of Insulins): 3 to 4 h
Onset ([1]; Table 2, Types of Insulins): 0.083 to 0.25 h
Peak ([1]; Table 2, Types of Insulins): 0.75 to 1.5 h

Lente
Peak ([1]; in vivo): 6 to 12 h

B1: rHuPH20: soluble recombinant human PH20 hyaluronidase expressed in CHO cells from nucleic acid encoding amino acids 36-482 of SEQ ID NO:1; mixture of SEQ ID NOS:4-9 (protein, listed as Homo sapiens)
chain: LNFRAPPVIPNVPFLWAWNAPSEFCLGKFDEPLDMSLFSFIGSPRINATGQGVTIFYVDRLGYYPYIDSITGVTVNGGIPQKISLQDHLDKAKKDITFYMPVDNLGMAVIDWEEWRPTWARNWKPKDVYKNRSIELVQQQNVQLSLTEATEKAKQEFEKAGKDFLVETIKLGKLLRPNHLWGYYLFPDCYNHHYKKPGYNGSCFNVEIKRNDDLSWLWNESTALYPSIYLNTQQSPVAATLYVRNRVREAIRVSKIPDAKSPLPVFAYTRIVFTDQVLKFLSQDELVYTFGETVALGASGIVIWGTLSIMRSMKSCLLLDNYMETILNPYIINVTLAAKMCSQVLCQEQGVCIRKNWNSSDYLHLNPDNFAIQLEKGGKFTVRGKPTLEDLEQFSEKFYCSCYSTLSCKEKADVKDTDAVDVCIADGVCIDAFLKPPMETEEPQIFY
modifications: mixture of SEQ ID NOS:4-9; precursor human PH20
reduction in 2 hour glycemic excursion ([2]; 15 completers): 21 mg/dL
reduction in 2 hour glycemic excursion ([2]; 17 completers): 19 mg/dL
subjects with adverse events related to CSII infusion sites (in words) [3]: two subjects
outpatient glucose control (in words) [4]: tighter glucose control
Potential local site reactions (in words) [5]: an abdominal bruise; also recorded: pain at the infusion site; also recorded: a stinging sensation during infusion
differences in onset or duration of action over three days of continuous infusion (in words) ([6]; Example 4, rHuPH20 pretreatment): no significant differences
faster onset of action with rHuPH20 pretreatment ([6]; vs without rHuPH20): 21 min
shorter duration of action with rHuPH20 pretreatment ([6]; vs without rHuPH20): 30 min
faster onset of action with rHuPH20 pretreatment ([7]; 15 completers): 9 min
shorter duration of action with rHuPH20 pretreatment ([7]; 15 completers): 27 min
faster onset of action with rHuPH20 pretreatment ([7]; 17 completers): 9 min
shorter duration of action with rHuPH20 pretreatment ([7]; 17 completers): 27 min
differences in early insulin exposure, onset or duration of action over three days of continuous infusion (in words) ([7]; Example 3, rHuPH20 pretreatment): no significant differences
